According to patent US20250049941A1, “ANTI-CD39 Antibody-Drug Conjugate And Use Thereof” (priority 2021, published 2025):

Target: T1, human CD39 naturally expressed on MOLP-8 cells (human, UniProt P49961 1-510)
T1 construct: whole, on cells; also called CD39 antigen; CD39 protein
T1 sequence (looked up): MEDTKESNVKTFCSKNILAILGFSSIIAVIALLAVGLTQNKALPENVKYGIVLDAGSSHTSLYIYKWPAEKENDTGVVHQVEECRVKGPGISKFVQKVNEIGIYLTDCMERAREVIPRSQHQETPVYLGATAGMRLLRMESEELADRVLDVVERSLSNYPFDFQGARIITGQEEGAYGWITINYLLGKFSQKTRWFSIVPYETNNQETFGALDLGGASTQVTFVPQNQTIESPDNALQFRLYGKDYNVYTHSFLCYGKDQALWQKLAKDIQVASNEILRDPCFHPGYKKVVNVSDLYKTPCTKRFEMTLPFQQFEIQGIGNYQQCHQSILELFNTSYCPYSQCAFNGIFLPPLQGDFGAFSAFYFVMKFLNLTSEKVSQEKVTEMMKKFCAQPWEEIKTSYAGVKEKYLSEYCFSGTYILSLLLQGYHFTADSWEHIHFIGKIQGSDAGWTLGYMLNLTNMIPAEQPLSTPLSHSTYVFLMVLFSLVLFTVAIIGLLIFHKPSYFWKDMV
Assay: flow cytometry on MOLP-8 cells, FITC goat anti-human H+L secondary antibody

- binding result: binds
B1: humanized monoclonal antibody F314 (antibody, human IgG4 S228P, kappa, V domains shown)
VH: QVQLVQSGAEVKKPGASVKVSCKASGYTFTNYWMYWVRQRPGRGLEWIGRIAPSSGATKYNEKFKNRATLTVDTSISTAYMELSRLRSDDTAVYYCARSGIYYDYDWFFDVWGQGTTVTVSS
VL: DIQMTQSPSSLSASVGDRVTITCKASQDINKYIGWYQQKPGKAPKLLIHYTSTLQPGVPSRFSGSGSGRDYTFTISSLQPEDIATYYCLQYHALLFTFGQGTKLEIKR
notes: Expressed in CHO-S cells; also called F314 monoclonal antibody; naked antibody
